This series in a line: soluble on expression in E. coli; label from the status in PepcDB or PDB records.
“MNQTDTSPIRLRRSWNTSEIEALFDEHAGRIDPRIYTDEDLYQLELERVFARSWLLLGHETQIRKPGDYITTYMGEDPVVVVRQKDASIAVFLNQCRHRGMRICRADAGNAKAFTCSYHGWAYDTAGNLVNVPYEAESFACLNKKEWSPLKARVETYKGLIFANWDENAVDLDTYLGEAKFYMDHMLDRTEAGTEAIPGVQKWVIPCNWKFAAEQFCSDMYHAGTTSHLSGILAGLPEDLEMADLAPPTVGKQYRASWGGHGSGFYVGDPNLMLAIMGPKVTSYWTEGPASEKAAERLGSVERGSKLMVEHMTVFPTCSFLPGINTVRTWHPRGPNEVEVWAFTVVDADAPDDIKEEFRRQTLRTFSAGGVFEQDDGENWVEIQHILRGHKARSRPFNAEMSMDQTVDNDPVYPGRISNNVYSEEAARGLYAHWLRMMTSPDWDALKATR”: the “soluble on expression in E. coli” value is given as “soluble”.
To “RLVDESALEEFLTREIGPAETFDVARHEQGHSNETLFVTWGDRELVVRRPPPGQTAETAHDVLREYRVIDALQDTAVPVPPTVTACDDQTIIGSDFYVMARVEGTVIRDDEPARFGSDDARAAVGTELVDTLAAIHEVDPTAVGLSDLGRADGYAKRQVARWGKQLAWAFERTAESRTIPELERVGSWLQDECPDDHPKTLVHGDYKLDNVMFGPGDDPELAAVFDWEMATLGDPRADLGWLLSYWRD” belongs “not soluble”; to “MGSDKIHHHHHHMKIDELIALAAEQPTRISRRSGVSRSTLKRVGDGTSEPTLSTLREVALALGLDIKVAAHHACDPFAAAAARTLIDASVPENPHNQEILAWLHRFERWNINDPLTLVSEAGTLQGITHRQDAQFVKLNPRGIAELPELFQQHKTKWALSGAAAATVIMGQIVLGNSIVWHEPAHDLDVSALGTIVDVAEDADLILLPATVTELVGSYTQDRLNFVAPVQLVIDLHSLHMFEEADYLTSGWR”, “not soluble”.
As for “MSNELPWQVWTPDDLAPPPETFVPVEADNVTLTEDTPEPELTAEQQLEQELAQLKIQAHEQGYNAGLAEGRQKGHAQGYQEGLAQGLEQGQAQAQTQQAPIHARMQQLVSEFQNTLDALDSVIASRLMQMALEAARQVIGQTPAVDNSALIKQIQQLLQQEPLFSGKPQLRVHPDDLQRVEEMLGATLSLHGWRLRGDPTLHHGGCKVSADEGDLDASVATRWQELCRLAAPGVL”, the “soluble on expression in E. coli” value is on record as “not soluble”.
“MGFLERIKKLFSKEEEKQEESILSNPLERLKKGDIIEIDGETWEVTDVALYDYGASKEKEWEIRSASRRGFLSLEEGKIYFFEEIDPEELEPDPGEHFRKYGKPPEYVTYKGKRYRLKYAGKAKYIKNLESYPVTIWEFRSEDGEMIDLEIWDEYEIEAYKGRELQEWEIESILPR”: the “soluble on expression in E. coli” value was “not soluble”.
The same measure for “MEPKVYKPPISKAIGLVVGSVLPVNPRDLEKMMRRLGIKVEQLSADEARIVLGSGETMVFRSPTVIVMRAKGQPPMVYLVGDYTVEKPREETAAEITEEDVALVAEQAGVSMEEARKALEESGGDIAEAILRLKGEE”: “not soluble”; for “MAHHHHHHMSLADEVPREWASSIRPFLQRADEFQERVPVVAYFLRTHAVYLAMKMWRKEDGPGKAFIVKLLDTLESEKKRLEQELADVDGRVLLTQYALRIFSRADDEERSDGVVANMNLVRLFFTASLLFEATAQFTDDGTLDPIATEKRDYARYIAVEMKKAMDKGVPYVSPNRTGGMVESNKEHEGESTGGGGFSTNFVQSQQPGYGQWSAQYVTPQPPPPSHEPPETPMWSGPESTNTSSTQQQQQSTPLFQTTAQPNNSNDNSNIAAAVSGVAAPKGPTMDAIIEAQNYAKQAVSALQFYDHEVACKMLRSALDLLAQR”: “soluble”.
Take “MAHHHHHHMLLLKRPFLPARVAPLCAQRKVSRLITYYTKSHEYIKINDEDLTELKKKNNVKCKIGISNYGTEKLGEIVYIDISQNINEYVKKGECIATVESVKSVGDVYTPISGQIVDINNEIVDNVNLMNGNSESDGWILELLTNDVNEKEIMSFSEYKKMCEEEEQREATKIQQSERDCLEEKNKNKIFDLNDIKNIEEKTKK”: the “soluble on expression in E. coli” value is reported as “soluble”.
On to “MHHHHHHRMKQLEDKVEELLSKNYHLENEVARLRSPPLLVGVVSDILEDGRVVVKSSTGPKFVVNTSQYINEEELKPGARVALNQQTLAIVNVLPTSKDPMVYGFEVEE”, for which the “soluble on expression in E. coli” value is “soluble”.

Source of the values: the DeepSol protein solubility set.
